Reference: patent US20220267750A1 (Merck KGaA, published 2022)

Molecular target: GP41-1 C-intein-thioredoxin fusion protein (CINT_TRX)
Experiment: cell-based or functional assay

B1: GP41-1 N-intein variant NINTΔA_TM fused with solubilization partner 138 (other)
chain: MTRSGYALDLKTQVQTPQGMKEISNIQVGDLVLSNTGYNEVLNVFPKSKKKSYKITLEDGKEIITSEEHLFPTQTGEMNISGGLKEGMMLYVKEGGMNKDEAGGNWKQFKGKVKEQWGKLTDDDMTIIEGKRDQLVGKIQERYGYQKDQAEKEVVDWETRNEYRW
catalytic rate (cleavage rate): ~3 fold of the parent construct NINTΔA_CC
